Results as given in patent US5919901.
Ends that are not written are not given here.

Target: T1, Rat Y4/PP1 (clone) (rat), Q63447
T1 chain: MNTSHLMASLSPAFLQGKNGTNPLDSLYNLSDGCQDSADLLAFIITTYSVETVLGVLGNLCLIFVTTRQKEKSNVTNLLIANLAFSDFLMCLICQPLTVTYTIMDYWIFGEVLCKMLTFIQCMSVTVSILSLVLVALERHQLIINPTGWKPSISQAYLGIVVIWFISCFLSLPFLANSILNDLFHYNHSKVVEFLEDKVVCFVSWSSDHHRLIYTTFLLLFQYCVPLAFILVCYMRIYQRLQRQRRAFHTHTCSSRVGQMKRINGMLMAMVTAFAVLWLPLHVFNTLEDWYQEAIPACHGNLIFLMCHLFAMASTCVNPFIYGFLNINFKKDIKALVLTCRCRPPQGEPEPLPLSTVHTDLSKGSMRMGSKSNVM
Test: competition with rat [125I]PP on the rat Y4/PP1 clone
Settings: remark: other sources report otherwise

PAEDLARYYSALRHYINLITRQRY (ends and bridges not checked) [p(13-36)NPY, P01304] was tested, and the IC50 was greater than 1000 nM.
